Assay results taken from US20170355766A1 (Xencor, published 2017).

T1: human FcγRIIb receptor protein (R&D Systems) (human, UniProt P31994 46-217)
T1 construct: Analyte injected over antibodies captured on a protein A/G chip (Biacore); also called CD32b
T1 sequence (looked up): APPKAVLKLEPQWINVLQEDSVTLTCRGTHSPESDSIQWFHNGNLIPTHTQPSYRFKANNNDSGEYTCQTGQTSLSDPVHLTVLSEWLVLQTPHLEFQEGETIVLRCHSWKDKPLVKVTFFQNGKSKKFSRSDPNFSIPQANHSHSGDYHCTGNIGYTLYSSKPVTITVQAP

B1: A327D/L328Y/I332E (antibody, human IgG1, kappa)
heavy: EVQLVESGGGLVKPGGSLKLSCAASGYTFTSYVMHWVRQAPGKGLEWIGYINPYNDGTKYNEKFQGRVTISSDKSISTAYMELSSLRSEDTAMYYCARGTYYYGTRVFDYWGQGTLVTVSSASTKGPSVFPLAPSSKSTSGGTAALGCLVKDYFPEPVTVSWNSGALTSGVHTFPAVLQSSGLYSLSSVVTVPSSSLGTQTYICNVNHKPSNTKVDKKVEPKSCDKTHTCPPCPAPELLGGPSVFLFPPKPKDTLMISRTPEVTCVVVDVSHEDPEVKFNWYVDGVEVHNAKTKPREEQYNSTYRVVSVLTVLHQDWLNGKEYKCKVSNKDYPAPEEKTISKAKGQPREPQVYTLPPSREEMTKNQVSLTCLVKGFYPSDIAVEWESNGQPENNYKTTPPVLDSDGSFFLYSKLTVDKSRWQQGNVFSCSVMHEALHNHYTQKSLSLSPGK
light: DIVMTQSPATLSLSPGERATLSCRSSKSLQNVNGNTYLYWFQQKPGQSPQLLIYRMSNLNSGVPDRFSGSGSGTEFTLTISSLEPEDFAVYYCMQHLEYPITFGAGTKLEIKRTVAAPSVFIFPPSDEQLKSGTASVVCLLNNFYPREAKVQWKVDNALQSGNSQESVTEQDSKDSTYSLSSTLTLSKADYEKHKVYACEVTHQGLSSPVTKSFNRGEC
notes: HuAM4G7 IgG1 Fc variant
B2: A330S (antibody, human IgG1, kappa)
heavy: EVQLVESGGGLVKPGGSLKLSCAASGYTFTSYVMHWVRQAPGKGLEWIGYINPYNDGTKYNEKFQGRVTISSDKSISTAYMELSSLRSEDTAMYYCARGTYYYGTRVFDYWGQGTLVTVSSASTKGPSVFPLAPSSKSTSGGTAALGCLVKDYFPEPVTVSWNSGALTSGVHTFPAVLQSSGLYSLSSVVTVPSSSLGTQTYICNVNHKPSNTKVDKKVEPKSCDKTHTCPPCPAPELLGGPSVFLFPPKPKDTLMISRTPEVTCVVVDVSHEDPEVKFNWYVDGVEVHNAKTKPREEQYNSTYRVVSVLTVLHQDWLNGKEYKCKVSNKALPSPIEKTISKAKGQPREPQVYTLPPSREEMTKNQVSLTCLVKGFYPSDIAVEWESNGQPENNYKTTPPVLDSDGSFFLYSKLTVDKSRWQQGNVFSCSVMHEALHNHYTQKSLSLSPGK
light: DIVMTQSPATLSLSPGERATLSCRSSKSLQNVNGNTYLYWFQQKPGQSPQLLIYRMSNLNSGVPDRFSGSGSGTEFTLTISSLEPEDFAVYYCMQHLEYPITFGAGTKLEIKRTVAAPSVFIFPPSDEQLKSGTASVVCLLNNFYPREAKVQWKVDNALQSGNSQESVTEQDSKDSTYSLSSTLTLSKADYEKHKVYACEVTHQGLSSPVTKSFNRGEC
notes: HuAM4G7 IgG1 Fc variant
B3: G236Y (antibody, human IgG1, kappa)
heavy: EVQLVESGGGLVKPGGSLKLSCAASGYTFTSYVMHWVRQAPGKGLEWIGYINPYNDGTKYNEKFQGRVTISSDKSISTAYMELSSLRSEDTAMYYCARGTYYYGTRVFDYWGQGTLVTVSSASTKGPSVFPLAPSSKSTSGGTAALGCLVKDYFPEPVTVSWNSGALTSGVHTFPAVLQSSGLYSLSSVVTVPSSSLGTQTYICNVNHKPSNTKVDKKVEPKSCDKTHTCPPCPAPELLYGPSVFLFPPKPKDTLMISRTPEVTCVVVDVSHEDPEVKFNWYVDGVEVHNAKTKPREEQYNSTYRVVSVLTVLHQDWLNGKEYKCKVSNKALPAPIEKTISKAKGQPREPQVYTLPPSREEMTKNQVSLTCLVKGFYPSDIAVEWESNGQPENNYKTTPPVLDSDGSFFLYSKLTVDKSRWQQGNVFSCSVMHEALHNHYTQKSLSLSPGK
light: DIVMTQSPATLSLSPGERATLSCRSSKSLQNVNGNTYLYWFQQKPGQSPQLLIYRMSNLNSGVPDRFSGSGSGTEFTLTISSLEPEDFAVYYCMQHLEYPITFGAGTKLEIKRTVAAPSVFIFPPSDEQLKSGTASVVCLLNNFYPREAKVQWKVDNALQSGNSQESVTEQDSKDSTYSLSSTLTLSKADYEKHKVYACEVTHQGLSSPVTKSFNRGEC
notes: HuAM4G7 IgG1 Fc variant
B4: A330H (antibody, human IgG1, kappa)
heavy: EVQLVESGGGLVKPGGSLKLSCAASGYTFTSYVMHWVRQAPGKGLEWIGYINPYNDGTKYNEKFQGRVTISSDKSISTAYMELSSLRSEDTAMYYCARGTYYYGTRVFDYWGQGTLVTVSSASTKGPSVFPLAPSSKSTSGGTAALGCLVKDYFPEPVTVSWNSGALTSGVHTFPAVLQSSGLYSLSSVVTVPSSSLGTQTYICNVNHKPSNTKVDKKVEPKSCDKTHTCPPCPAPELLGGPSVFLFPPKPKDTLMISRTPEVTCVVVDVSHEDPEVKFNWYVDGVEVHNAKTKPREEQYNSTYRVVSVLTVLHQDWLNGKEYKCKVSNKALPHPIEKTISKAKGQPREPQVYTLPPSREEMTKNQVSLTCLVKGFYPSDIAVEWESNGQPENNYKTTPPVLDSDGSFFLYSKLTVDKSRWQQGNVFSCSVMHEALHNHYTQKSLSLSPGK
light: DIVMTQSPATLSLSPGERATLSCRSSKSLQNVNGNTYLYWFQQKPGQSPQLLIYRMSNLNSGVPDRFSGSGSGTEFTLTISSLEPEDFAVYYCMQHLEYPITFGAGTKLEIKRTVAAPSVFIFPPSDEQLKSGTASVVCLLNNFYPREAKVQWKVDNALQSGNSQESVTEQDSKDSTYSLSSTLTLSKADYEKHKVYACEVTHQGLSSPVTKSFNRGEC
notes: HuAM4G7 IgG1 Fc variant
B5: G236L (antibody, human IgG1, kappa)
heavy: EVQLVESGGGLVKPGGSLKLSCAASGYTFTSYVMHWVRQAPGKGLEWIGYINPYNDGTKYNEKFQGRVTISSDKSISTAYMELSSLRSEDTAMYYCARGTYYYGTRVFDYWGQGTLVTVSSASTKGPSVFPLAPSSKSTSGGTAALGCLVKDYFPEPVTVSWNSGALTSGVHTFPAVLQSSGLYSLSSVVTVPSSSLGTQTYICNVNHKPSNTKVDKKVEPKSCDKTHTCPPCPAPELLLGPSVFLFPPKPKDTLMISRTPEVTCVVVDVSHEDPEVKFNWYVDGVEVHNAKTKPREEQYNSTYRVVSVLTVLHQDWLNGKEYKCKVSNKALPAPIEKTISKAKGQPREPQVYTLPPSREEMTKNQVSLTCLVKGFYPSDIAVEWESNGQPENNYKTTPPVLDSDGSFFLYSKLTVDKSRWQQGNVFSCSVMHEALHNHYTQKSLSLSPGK
light: DIVMTQSPATLSLSPGERATLSCRSSKSLQNVNGNTYLYWFQQKPGQSPQLLIYRMSNLNSGVPDRFSGSGSGTEFTLTISSLEPEDFAVYYCMQHLEYPITFGAGTKLEIKRTVAAPSVFIFPPSDEQLKSGTASVVCLLNNFYPREAKVQWKVDNALQSGNSQESVTEQDSKDSTYSLSSTLTLSKADYEKHKVYACEVTHQGLSSPVTKSFNRGEC
notes: HuAM4G7 IgG1 Fc variant
B6: G237L (antibody, human IgG1, kappa)
heavy: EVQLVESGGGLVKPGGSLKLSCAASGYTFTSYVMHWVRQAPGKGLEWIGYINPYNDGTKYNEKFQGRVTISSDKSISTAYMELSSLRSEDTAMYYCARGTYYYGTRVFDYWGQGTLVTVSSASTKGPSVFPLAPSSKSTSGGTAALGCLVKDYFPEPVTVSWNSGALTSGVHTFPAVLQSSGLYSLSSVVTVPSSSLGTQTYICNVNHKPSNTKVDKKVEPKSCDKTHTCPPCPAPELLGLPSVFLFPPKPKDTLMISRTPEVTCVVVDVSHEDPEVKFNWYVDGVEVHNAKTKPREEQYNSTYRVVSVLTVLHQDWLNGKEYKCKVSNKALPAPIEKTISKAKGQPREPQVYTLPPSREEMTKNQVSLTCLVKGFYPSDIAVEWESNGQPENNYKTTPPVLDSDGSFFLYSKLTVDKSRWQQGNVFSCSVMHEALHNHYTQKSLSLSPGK
light: DIVMTQSPATLSLSPGERATLSCRSSKSLQNVNGNTYLYWFQQKPGQSPQLLIYRMSNLNSGVPDRFSGSGSGTEFTLTISSLEPEDFAVYYCMQHLEYPITFGAGTKLEIKRTVAAPSVFIFPPSDEQLKSGTASVVCLLNNFYPREAKVQWKVDNALQSGNSQESVTEQDSKDSTYSLSSTLTLSKADYEKHKVYACEVTHQGLSSPVTKSFNRGEC
notes: HuAM4G7 IgG1 Fc variant
B7: A330K (antibody, human IgG1, kappa)
heavy: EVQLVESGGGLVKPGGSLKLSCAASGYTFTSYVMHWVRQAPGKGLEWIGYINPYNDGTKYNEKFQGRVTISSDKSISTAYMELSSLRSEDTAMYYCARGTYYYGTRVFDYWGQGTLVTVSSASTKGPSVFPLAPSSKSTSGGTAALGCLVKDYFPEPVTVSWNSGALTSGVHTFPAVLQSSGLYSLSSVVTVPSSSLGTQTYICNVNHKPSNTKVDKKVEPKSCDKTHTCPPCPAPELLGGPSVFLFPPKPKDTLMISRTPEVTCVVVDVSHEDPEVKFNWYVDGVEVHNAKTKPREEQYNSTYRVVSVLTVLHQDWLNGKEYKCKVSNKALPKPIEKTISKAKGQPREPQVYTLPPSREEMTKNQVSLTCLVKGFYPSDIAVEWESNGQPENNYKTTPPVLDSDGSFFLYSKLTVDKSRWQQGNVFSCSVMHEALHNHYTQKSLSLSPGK
light: DIVMTQSPATLSLSPGERATLSCRSSKSLQNVNGNTYLYWFQQKPGQSPQLLIYRMSNLNSGVPDRFSGSGSGTEFTLTISSLEPEDFAVYYCMQHLEYPITFGAGTKLEIKRTVAAPSVFIFPPSDEQLKSGTASVVCLLNNFYPREAKVQWKVDNALQSGNSQESVTEQDSKDSTYSLSSTLTLSKADYEKHKVYACEVTHQGLSSPVTKSFNRGEC
notes: HuAM4G7 IgG1 Fc variant
B8: H268D/A327D/L328Y (antibody, human IgG1, kappa)
heavy: EVQLVESGGGLVKPGGSLKLSCAASGYTFTSYVMHWVRQAPGKGLEWIGYINPYNDGTKYNEKFQGRVTISSDKSISTAYMELSSLRSEDTAMYYCARGTYYYGTRVFDYWGQGTLVTVSSASTKGPSVFPLAPSSKSTSGGTAALGCLVKDYFPEPVTVSWNSGALTSGVHTFPAVLQSSGLYSLSSVVTVPSSSLGTQTYICNVNHKPSNTKVDKKVEPKSCDKTHTCPPCPAPELLGGPSVFLFPPKPKDTLMISRTPEVTCVVVDVSDEDPEVKFNWYVDGVEVHNAKTKPREEQYNSTYRVVSVLTVLHQDWLNGKEYKCKVSNKDYPAPIEKTISKAKGQPREPQVYTLPPSREEMTKNQVSLTCLVKGFYPSDIAVEWESNGQPENNYKTTPPVLDSDGSFFLYSKLTVDKSRWQQGNVFSCSVMHEALHNHYTQKSLSLSPGK
light: DIVMTQSPATLSLSPGERATLSCRSSKSLQNVNGNTYLYWFQQKPGQSPQLLIYRMSNLNSGVPDRFSGSGSGTEFTLTISSLEPEDFAVYYCMQHLEYPITFGAGTKLEIKRTVAAPSVFIFPPSDEQLKSGTASVVCLLNNFYPREAKVQWKVDNALQSGNSQESVTEQDSKDSTYSLSSTLTLSKADYEKHKVYACEVTHQGLSSPVTKSFNRGEC
notes: HuAM4G7 IgG1 Fc variant
B9: A327L (antibody, human IgG1, kappa)
heavy: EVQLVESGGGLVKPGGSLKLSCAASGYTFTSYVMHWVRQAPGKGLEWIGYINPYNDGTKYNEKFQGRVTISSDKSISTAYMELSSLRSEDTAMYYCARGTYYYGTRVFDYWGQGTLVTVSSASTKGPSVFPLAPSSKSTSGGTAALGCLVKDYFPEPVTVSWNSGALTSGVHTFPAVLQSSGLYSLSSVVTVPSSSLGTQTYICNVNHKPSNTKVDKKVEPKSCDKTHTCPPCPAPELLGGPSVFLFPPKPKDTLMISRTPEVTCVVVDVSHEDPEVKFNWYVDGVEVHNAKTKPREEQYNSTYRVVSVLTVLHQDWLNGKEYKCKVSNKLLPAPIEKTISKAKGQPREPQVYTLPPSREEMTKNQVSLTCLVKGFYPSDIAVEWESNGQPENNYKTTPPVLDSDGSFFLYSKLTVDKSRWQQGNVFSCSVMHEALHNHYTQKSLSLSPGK
light: DIVMTQSPATLSLSPGERATLSCRSSKSLQNVNGNTYLYWFQQKPGQSPQLLIYRMSNLNSGVPDRFSGSGSGTEFTLTISSLEPEDFAVYYCMQHLEYPITFGAGTKLEIKRTVAAPSVFIFPPSDEQLKSGTASVVCLLNNFYPREAKVQWKVDNALQSGNSQESVTEQDSKDSTYSLSSTLTLSKADYEKHKVYACEVTHQGLSSPVTKSFNRGEC
notes: HuAM4G7 IgG1 Fc variant
B10: G237H (antibody, human IgG1, kappa)
heavy: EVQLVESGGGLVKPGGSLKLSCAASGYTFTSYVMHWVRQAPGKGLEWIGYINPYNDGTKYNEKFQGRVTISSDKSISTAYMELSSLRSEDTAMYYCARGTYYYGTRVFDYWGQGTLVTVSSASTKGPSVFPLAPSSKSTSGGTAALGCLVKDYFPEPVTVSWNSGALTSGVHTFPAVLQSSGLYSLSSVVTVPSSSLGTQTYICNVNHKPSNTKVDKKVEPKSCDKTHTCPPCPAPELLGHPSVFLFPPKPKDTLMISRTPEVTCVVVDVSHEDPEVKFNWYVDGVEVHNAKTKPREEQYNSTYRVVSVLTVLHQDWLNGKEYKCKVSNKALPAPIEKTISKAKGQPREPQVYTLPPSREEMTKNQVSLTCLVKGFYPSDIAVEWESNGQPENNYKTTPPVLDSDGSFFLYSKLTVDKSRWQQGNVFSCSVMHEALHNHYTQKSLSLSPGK
light: DIVMTQSPATLSLSPGERATLSCRSSKSLQNVNGNTYLYWFQQKPGQSPQLLIYRMSNLNSGVPDRFSGSGSGTEFTLTISSLEPEDFAVYYCMQHLEYPITFGAGTKLEIKRTVAAPSVFIFPPSDEQLKSGTASVVCLLNNFYPREAKVQWKVDNALQSGNSQESVTEQDSKDSTYSLSSTLTLSKADYEKHKVYACEVTHQGLSSPVTKSFNRGEC
notes: HuAM4G7 IgG1 Fc variant
B11: A330D (antibody, human IgG1, kappa)
heavy: not shown
light: DIVMTQSPATLSLSPGERATLSCRSSKSLQNVNGNTYLYWFQQKPGQSPQLLIYRMSNLNSGVPDRFSGSGSGTEFTLTISSLEPEDFAVYYCMQHLEYPITFGAGTKLEIKRTVAAPSVFIFPPSDEQLKSGTASVVCLLNNFYPREAKVQWKVDNALQSGNSQESVTEQDSKDSTYSLSSTLTLSKADYEKHKVYACEVTHQGLSSPVTKSFNRGEC
notes: HuAM4G7 IgG1 Fc variant
B12: H268D/A327D (antibody, human IgG1, kappa)
heavy: not shown
light: DIVMTQSPATLSLSPGERATLSCRSSKSLQNVNGNTYLYWFQQKPGQSPQLLIYRMSNLNSGVPDRFSGSGSGTEFTLTISSLEPEDFAVYYCMQHLEYPITFGAGTKLEIKRTVAAPSVFIFPPSDEQLKSGTASVVCLLNNFYPREAKVQWKVDNALQSGNSQESVTEQDSKDSTYSLSSTLTLSKADYEKHKVYACEVTHQGLSSPVTKSFNRGEC
notes: HuAM4G7 IgG1 Fc variant
B13: G236I (antibody, human IgG1, kappa)
heavy: not shown
light: DIVMTQSPATLSLSPGERATLSCRSSKSLQNVNGNTYLYWFQQKPGQSPQLLIYRMSNLNSGVPDRFSGSGSGTEFTLTISSLEPEDFAVYYCMQHLEYPITFGAGTKLEIKRTVAAPSVFIFPPSDEQLKSGTASVVCLLNNFYPREAKVQWKVDNALQSGNSQESVTEQDSKDSTYSLSSTLTLSKADYEKHKVYACEVTHQGLSSPVTKSFNRGEC
notes: HuAM4G7 IgG1 Fc variant
B14: G236D/H268D (antibody, human IgG1, kappa)
heavy: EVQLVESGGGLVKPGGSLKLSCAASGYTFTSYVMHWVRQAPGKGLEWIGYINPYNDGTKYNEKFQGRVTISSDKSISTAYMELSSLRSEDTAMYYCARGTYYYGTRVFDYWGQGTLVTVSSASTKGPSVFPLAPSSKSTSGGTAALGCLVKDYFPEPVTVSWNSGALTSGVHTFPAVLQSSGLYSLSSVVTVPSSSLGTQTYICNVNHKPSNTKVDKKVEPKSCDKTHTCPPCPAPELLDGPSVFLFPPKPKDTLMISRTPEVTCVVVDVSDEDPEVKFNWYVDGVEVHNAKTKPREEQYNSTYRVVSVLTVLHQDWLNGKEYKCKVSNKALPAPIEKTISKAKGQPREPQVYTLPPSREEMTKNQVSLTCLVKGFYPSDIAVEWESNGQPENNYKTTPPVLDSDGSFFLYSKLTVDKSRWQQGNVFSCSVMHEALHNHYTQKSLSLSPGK
light: DIVMTQSPATLSLSPGERATLSCRSSKSLQNVNGNTYLYWFQQKPGQSPQLLIYRMSNLNSGVPDRFSGSGSGTEFTLTISSLEPEDFAVYYCMQHLEYPITFGAGTKLEIKRTVAAPSVFIFPPSDEQLKSGTASVVCLLNNFYPREAKVQWKVDNALQSGNSQESVTEQDSKDSTYSLSSTLTLSKADYEKHKVYACEVTHQGLSSPVTKSFNRGEC
notes: HuAM4G7 IgG1 Fc variant
B15: G236S/G237A (antibody, human IgG1, kappa)
heavy: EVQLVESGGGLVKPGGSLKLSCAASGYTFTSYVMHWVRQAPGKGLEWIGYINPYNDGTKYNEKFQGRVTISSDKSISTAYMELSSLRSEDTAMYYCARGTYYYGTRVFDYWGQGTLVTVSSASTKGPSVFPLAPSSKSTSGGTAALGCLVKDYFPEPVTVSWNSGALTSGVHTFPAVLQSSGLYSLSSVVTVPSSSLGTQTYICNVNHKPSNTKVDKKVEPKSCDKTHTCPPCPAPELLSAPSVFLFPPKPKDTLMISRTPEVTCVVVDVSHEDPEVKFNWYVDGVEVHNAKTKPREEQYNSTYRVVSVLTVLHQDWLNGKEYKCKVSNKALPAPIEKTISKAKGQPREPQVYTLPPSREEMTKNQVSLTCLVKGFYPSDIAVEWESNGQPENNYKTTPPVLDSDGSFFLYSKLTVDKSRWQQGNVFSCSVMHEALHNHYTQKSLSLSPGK
light: DIVMTQSPATLSLSPGERATLSCRSSKSLQNVNGNTYLYWFQQKPGQSPQLLIYRMSNLNSGVPDRFSGSGSGTEFTLTISSLEPEDFAVYYCMQHLEYPITFGAGTKLEIKRTVAAPSVFIFPPSDEQLKSGTASVVCLLNNFYPREAKVQWKVDNALQSGNSQESVTEQDSKDSTYSLSSTLTLSKADYEKHKVYACEVTHQGLSSPVTKSFNRGEC
notes: HuAM4G7 IgG1 Fc variant
B16: G236A/G237A (antibody, human IgG1, kappa)
heavy: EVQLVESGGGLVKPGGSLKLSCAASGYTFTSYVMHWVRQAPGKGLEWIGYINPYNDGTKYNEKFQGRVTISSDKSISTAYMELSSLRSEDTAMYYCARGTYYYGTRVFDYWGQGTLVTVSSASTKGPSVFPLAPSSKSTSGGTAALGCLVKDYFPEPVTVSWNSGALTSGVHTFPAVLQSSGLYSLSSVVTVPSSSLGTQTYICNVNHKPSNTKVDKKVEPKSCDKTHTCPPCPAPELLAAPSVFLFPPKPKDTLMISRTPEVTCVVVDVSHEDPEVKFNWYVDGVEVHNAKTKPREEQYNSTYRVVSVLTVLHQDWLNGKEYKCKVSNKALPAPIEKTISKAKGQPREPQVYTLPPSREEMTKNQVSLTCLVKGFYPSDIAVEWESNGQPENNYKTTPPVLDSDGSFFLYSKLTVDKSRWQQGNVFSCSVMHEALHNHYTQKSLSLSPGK
light: DIVMTQSPATLSLSPGERATLSCRSSKSLQNVNGNTYLYWFQQKPGQSPQLLIYRMSNLNSGVPDRFSGSGSGTEFTLTISSLEPEDFAVYYCMQHLEYPITFGAGTKLEIKRTVAAPSVFIFPPSDEQLKSGTASVVCLLNNFYPREAKVQWKVDNALQSGNSQESVTEQDSKDSTYSLSSTLTLSKADYEKHKVYACEVTHQGLSSPVTKSFNRGEC
notes: HuAM4G7 IgG1 Fc variant

Biological target: T1, human FcγRIIb receptor protein (R&D …)
Test: SPR (Biacore)
Procedure: Variants were screened for receptor affinity using Biacore™ technology, also referred to as Biacore herein, a surface plasmon resonance (SPR) based technology for studying biomolecular interactions in real time. SPR measurements were performed using a Biacore 3000 instrument (Biacore, Piscataway, N.J.). A protein A/G (Pierce Biotechnology) CM5 biosensor chip (Biacore) was generated using a standard primary amine coupling protocol. All measurements were performed using HBS-EP buffer (10 mM HEPES pH 7.4, 0.15 M NaCl, 3 mM EDTA, 0.005% vol/vol surfactant P20, Biacore). Antibodies at 20 nM or 50 nM in HBS-EP buffer were immobilized on the protein A/G surface and FcγRs were injected. After each cycle, the surface was regenerated by injecting glycine buffer (10 mM, pH 1.5). Data were processed by zeroing time and response before the injection of FcγR and by subtracting appropriate nonspecific signals (response of reference channel and injection of running buffer). Kinetic analyses were performed by global fitting of binding data with a 1:1 Langmuir binding model using BIAevaluation software (Biacore).

Question: How did the “Fold FcγRIIb” value turn out when B1 was run?
Answer: The value was 2.31 fold.

Question: How did the “Fold FcγRIIb” value turn out when B2 was run?
Answer: Its value is 0.0635 fold.

Question: Does B3 bind?
Answer: Result: no binding

Question: Does B4 bind?
Answer: Result: no binding

Question: Does B5 bind?
Answer: Result: no binding

Question: Does B6 bind?
Answer: Result: no binding

Question: For B7, which “Fold FcγRIIb” value is on record?
Answer: The value was 1.55 fold.

Question: Which “Fold FcγRIIb” value does the source give for B8 here?
Answer: The value was 3.49 fold.

Question: Does B9 bind?
Answer: Result: no binding

Question: Does B10 bind?
Answer: Result: no binding

Question: Does B11 bind?
Answer: Result: no binding

Question: B12 was tested. Which “Fold FcγRIIb” value did it give?
Answer: The value was 7.68 fold.

Question: Does B13 bind?
Answer: Result: no binding

Question: How did the “Fold FcγRIIb” value turn out when B14 was run?
Answer: The value was 11.6 fold.

Question: For B15, which “Fold FcγRIIb” value is on record?
Answer: Its value is 0.0797 fold.

Question: With B16 as the binder, how does the “Fold FcγRIIb” value read?
Answer: Its value is 0.0578 fold.
